Test results: publication PMC12354141

Molecular target: FcγRIIIa/CD16a 158V, His-tagged (human)
Assay: BLI

Chain of FcγRIIIa/CD16a 158V, His-tagged (human) (P08637 17-208): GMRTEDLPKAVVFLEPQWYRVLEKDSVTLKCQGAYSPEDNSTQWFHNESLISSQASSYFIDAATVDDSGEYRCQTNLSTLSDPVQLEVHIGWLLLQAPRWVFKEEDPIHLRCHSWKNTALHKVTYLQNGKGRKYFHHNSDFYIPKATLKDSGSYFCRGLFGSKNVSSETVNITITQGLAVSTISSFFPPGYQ

Row | Substance | Kd
1 | denosumab (as such; mean over the products) (antibody) | 15000 nM

Molecular target: human neonatal Fc receptor (FcRn), His-tagged (human) (UniProt P55899)
Assay: BLI

Chain of UniProt P55899 (P55899 24-297, chain 1 of 2): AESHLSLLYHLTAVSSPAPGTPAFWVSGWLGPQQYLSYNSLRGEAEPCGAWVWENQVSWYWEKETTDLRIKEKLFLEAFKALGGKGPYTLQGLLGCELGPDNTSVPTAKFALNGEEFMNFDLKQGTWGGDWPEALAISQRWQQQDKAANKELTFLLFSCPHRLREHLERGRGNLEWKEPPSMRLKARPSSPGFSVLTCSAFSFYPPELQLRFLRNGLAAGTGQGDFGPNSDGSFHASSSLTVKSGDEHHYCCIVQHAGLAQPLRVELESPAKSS
Chain of UniProt P55899 (P61769 21-119, chain 2 of 2, further chain): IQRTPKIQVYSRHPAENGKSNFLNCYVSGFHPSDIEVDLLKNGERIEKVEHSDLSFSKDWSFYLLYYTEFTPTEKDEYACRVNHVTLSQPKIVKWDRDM

Row | Substance | Kd
2 | EU Prolia^® (denosumab reference drug product, EU-licensed) (antibody) | 17.7 to 38.5 nM
3 | EU Xgeva^® (denosumab reference drug product, EU-licensed) (antibody) | 14.7 to 36.2 nM
4 | RGB-14-P (Gedeon Richter's proposed denosumab biosimilar to Prolia^®) (antibody) | 17.2 to 30.1 nM
5 | RGB-14-X (Gedeon Richter's proposed denosumab biosimilar to Xgeva^®) (antibody) | 21.6 to 27.2 nM
6 | US Prolia^® (denosumab reference drug product, US-licensed) (antibody) | 19.7 to 29.2 nM
7 | US Xgeva^® (denosumab reference drug product, US-licensed) (antibody) | 18.1 to 33.5 nM
